Assay results from article PMC4678419.

Legend:
[1] = biological target: biotin-labeled surface proteins from human monocytes; assay: SPR; Biacore 3000; biotin-labeled surface proteins from THP-1 cells (3.2 kRU) or human monocytes (2.3 kRU) captured on a SA chip; 25 nM S100A8, S100A9 or S100A8/S100A9 injected 3 min at 20 uL/min in HBS-P with 1 mM Ca and 20 uM Zn; fit to a 1:1 model
[2] = biological target: biotin-labeled surface proteins from THP-1 cells; assay: as above

B1: S100A9 (recombinant human S100A9, produced at Active Biotech AB) (natural protein)
chain: MTCKMSQLERNIETIINTFHQYSVKLGHPDTLNQGEFKELVRKDLQNFLKKENKNEKVIEHIMEDLDTNADKQLSFEEFIMLMARLTWASHEKMHEGDEGPGHHHKPGLGEGTP
B1 gave a Kd [1] of 2.3 nM and a Kd [2] of 3.3 nM.
